In the supplement of paper PMC9112550, “Optimization of the antimicrobial peptide Bac7 by deep mutational scanning” (BMC Biology, 2022):

What follows are sequences tested on Escherichia coli TOP10 (assay: shrunken log2 fold change of peptide-encoding DNA abundance (4.5 h post-induction vs induction); higher = less antimicrobial activity (less host growth inhibition)). Details: time post-induction: 4.5 h; library: site-saturation at positions 5, 18, 19, 20.
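Further: peptides expressed intracellularly from a pBAD plasmid library in pooled LB shake-flask culture, induced with 0.3% L-arabinose, DNA abundance read by NGS, three biological replicates, DESeq2 with apeglm shrinkage.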

Sequence | shrunken log2 fold change
RRIRKRPPRLPRPRPRPQAHPRP | 0.266
RRIRVRPPRLPRPRPRPDHCPRP | -0.146
RRIRFRPPRLPRPRPRPTWTPRP | -0.11
RRIRTRPPRLPRPRPRPLEDPRP | -0.163
RRIRIRPPRLPRPRPRPTQTPRP | 0.0595
RRIRARPPRLPRPRPRPPIVPRP | -0.0791
RRIRSRPPRLPRPRPRPFWFPRP | -0.113
RRIRVRPPRLPRPRPRPKNCPRP | -0.183
RRIRGRPPRLPRPRPRPMIVPRP | 0.554
RRIRVRPPRLPRPRPRPGMRPRP | 0.565
RRIRGRPPRLPRPRPRPRQNPRP | 0.768
RRIRIRPPRLPRPRPRPIWWPRP | 0.0713
RRIRTRPPRLPRPRPRPHIMPRP | -0.738
RRIRNRPPRLPRPRPRPKFMPRP | -0.0904
RRIRQRPPRLPRPRPRPGKAPRP | 0.0185
RRIRGRPPRLPRPRPRPGQCPRP | 0.275
RRIRQRPPRLPRPRPRPFPCPRP | 0.0349
RRIRNRPPRLPRPRPRPTNPPRP | -0.216
RRIRLRPPRLPRPRPRPYHWPRP | -0.188
RRIRARPPRLPRPRPRPIIFPRP | -0.323
RRIRYRPPRLPRPRPRPEWHPRP | -0.186
RRIRWRPPRLPRPRPRPPKDPRP | 0.0853
RRIRRRPPRLPRPRPRPWLFPRP | 0.383
RRIRARPPRLPRPRPRPQHHPRP | -0.298
RRIRYRPPRLPRPRPRPKSCPRP | -0.0262

Sequence | shrunken log2 fold change
RRIRVRPPRLPRPRPRPLFHPRP | -0.311
RRIRIRPPRLPRPRPRPNLVPRP | -0.175
RRIRTRPPRLPRPRPRPWAIPRP | -0.205
RRIRHRPPRLPRPRPRPQTYPRP | -0.193
RRIRIRPPRLPRPRPRPACCPRP | -0.086
RRIRNRPPRLPRPRPRPPDVPRP | -0.14
RRIRIRPPRLPRPRPRPATEPRP | 0.421
RRIRKRPPRLPRPRPRPDCLPRP | -0.116
RRIRNRPPRLPRPRPRPTEYPRP | -0.203
RRIRHRPPRLPRPRPRPDDSPRP | -0.01
RRIRKRPPRLPRPRPRPYTKPRP | -0.138
RRIRKRPPRLPRPRPRPNLAPRP | 0.25
RRIRMRPPRLPRPRPRPFIQPRP | 0.0137
RRIRRRPPRLPRPRPRPRCRPRP | 1.57
RRIRYRPPRLPRPRPRPHLAPRP | 0.13
RRIRCRPPRLPRPRPRPILPPRP | -0.287
RRIRDRPPRLPRPRPRPGCPPRP | 0.0445
RRIRTRPPRLPRPRPRPTRHPRP | 0.237
RRIRTRPPRLPRPRPRPINKPRP | -0.322
RRIRPRPPRLPRPRPRPSQRPRP | 0.229
RRIRCRPPRLPRPRPRPNTVPRP | -0.768
RRIRFRPPRLPRPRPRPPWHPRP | 0.087
RRIRRRPPRLPRPRPRPGDFPRP | 0.464
RRIRVRPPRLPRPRPRPWRFPRP | -0.0846
RRIRLRPPRLPRPRPRPKMEPRP | -0.0157

Sequence | shrunken log2 fold change
RRIRDRPPRLPRPRPRPPLWPRP | 0.228
RRIRARPPRLPRPRPRPRAIPRP | 0.358
RRIRYRPPRLPRPRPRPWDAPRP | -0.796
RRIRIRPPRLPRPRPRPQGIPRP | -0.012
RRIRNRPPRLPRPRPRPSAHPRP | -0.0549
RRIRIRPPRLPRPRPRPLWGPRP | 0.0579
RRIRHRPPRLPRPRPRPNDVPRP | -0.0131
RRIRMRPPRLPRPRPRPLNTPRP | 0.163
RRIRWRPPRLPRPRPRPPHPPRP | 0.373
RRIRCRPPRLPRPRPRPYGEPRP | -0.432
RRIRERPPRLPRPRPRPHMGPRP | -0.00822
RRIRKRPPRLPRPRPRPPIIPRP | -0.146
RRIRLRPPRLPRPRPRPWCWPRP | 0.0542
RRIRRRPPRLPRPRPRPGGVPRP | 0.483
RRIRPRPPRLPRPRPRPKFYPRP | -0.351
RRIRVRPPRLPRPRPRPVDSPRP | 0.0147
RRIRYRPPRLPRPRPRPCGTPRP | -0.193
RRIRYRPPRLPRPRPRPPFPPRP | -0.0826
RRIRSRPPRLPRPRPRPSCEPRP | -0.0887
RRIRERPPRLPRPRPRPIKIPRP | -0.681
RRIRHRPPRLPRPRPRPAMIPRP | -0.0435
RRIRGRPPRLPRPRPRPKPQPRP | 0.543
RRIRKRPPRLPRPRPRPHCGPRP | -0.0593
RRIRGRPPRLPRPRPRPLVGPRP | 0.439
RRIRTRPPRLPRPRPRPGMCPRP | -0.139

Sequence | shrunken log2 fold change
RRIRIRPPRLPRPRPRPIDEPRP | 0.0184
RRIRARPPRLPRPRPRPGNEPRP | 0.215
RRIRNRPPRLPRPRPRPQHDPRP | -0.25
RRIRKRPPRLPRPRPRPCAFPRP | 0.0922
RRIRCRPPRLPRPRPRPTTVPRP | -0.356
RRIRVRPPRLPRPRPRPFQFPRP | -0.171
RRIRNRPPRLPRPRPRPIHIPRP | -0.58
RRIRTRPPRLPRPRPRPMIWPRP | -0.0322
RRIRMRPPRLPRPRPRPHKRPRP | 0.126
RRIRHRPPRLPRPRPRPYTGPRP | -0.304
RRIRERPPRLPRPRPRPAYLPRP | -0.296
RRIRVRPPRLPRPRPRPGTFPRP | -0.867
RRIRGRPPRLPRPRPRPRIEPRP | 0.249
RRIRFRPPRLPRPRPRPAIKPRP | -0.328
RRIRHRPPRLPRPRPRPLSIPRP | -0.326
RRIRHRPPRLPRPRPRPDPAPRP | 0.189
RRIRCRPPRLPRPRPRPNCVPRP | -0.00701
RRIRRRPPRLPRPRPRPQYTPRP | -0.221
RRIRDRPPRLPRPRPRPHMCPRP | 0.0514
RRIRARPPRLPRPRPRPFFMPRP | -0.0309
RRIRNRPPRLPRPRPRPGFDPRP | 0.189
RRIRERPPRLPRPRPRPDTWPRP | -0.295
RRIRERPPRLPRPRPRPCHAPRP | -0.301
RRIRMRPPRLPRPRPRPVWIPRP | -0.0455
RRIRVRPPRLPRPRPRPPTSPRP | 0.101

Sequence | shrunken log2 fold change
RRIRYRPPRLPRPRPRPSTSPRP | 1.42
RRIRLRPPRLPRPRPRPAPWPRP | 0.354
RRIRIRPPRLPRPRPRPEEPPRP | -0.0444
RRIRMRPPRLPRPRPRPRLEPRP | 0.113
RRIRRRPPRLPRPRPRPNEFPRP | -0.0247
RRIRTRPPRLPRPRPRPYTDPRP | -0.448
RRIRMRPPRLPRPRPRPWYRPRP | -0.277
RRIRWRPPRLPRPRPRPKDNPRP | -0.00672
RRIRFRPPRLPRPRPRPRAFPRP | 0.0447
RRIRQRPPRLPRPRPRPQHTPRP | -0.69
RRIRVRPPRLPRPRPRPDAGPRP | 0.13
RRIRWRPPRLPRPRPRPPLPPRP | 1.07
RRIRDRPPRLPRPRPRPIQAPRP | 0.119
RRIRCRPPRLPRPRPRPMRLPRP | 0.0914
RRIRHRPPRLPRPRPRPYFQPRP | -0.935
RRIRCRPPRLPRPRPRPPQHPRP | 0.49
RRIRMRPPRLPRPRPRPRNTPRP | 0.354
RRIRHRPPRLPRPRPRPKAQPRP | 0.0148
RRIRIRPPRLPRPRPRPCYYPRP | -0.272
RRIRYRPPRLPRPRPRPMMTPRP | -0.111
RRIRNRPPRLPRPRPRPSQWPRP | -0.194
RRIRMRPPRLPRPRPRPWLPPRP | -0.0332
RRIRQRPPRLPRPRPRPKCDPRP | 0.151
RRIRGRPPRLPRPRPRPLIVPRP | 0.274
RRIRDRPPRLPRPRPRPQTFPRP | 0.0361

Sequence | shrunken log2 fold change
RRIRFRPPRLPRPRPRPDSSPRP | -0.055
RRIRNRPPRLPRPRPRPKMVPRP | -0.13
RRIRLRPPRLPRPRPRPSFHPRP | -0.457
RRIRPRPPRLPRPRPRPEAGPRP | 0.566
RRIRYRPPRLPRPRPRPVTDPRP | -0.418
RRIRLRPPRLPRPRPRPNHQPRP | -0.19
RRIRKRPPRLPRPRPRPWAVPRP | 0.192
RRIRKRPPRLPRPRPRPFKCPRP | -0.0191
RRIRQRPPRLPRPRPRPQGEPRP | -0.154
RRIRGRPPRLPRPRPRPGFLPRP | 0.41
RRIRNRPPRLPRPRPRPPYQPRP | -0.22
RRIRMRPPRLPRPRPRPEKWPRP | 1.56
RRIRHRPPRLPRPRPRPFFRPRP | -0.0964
RRIRSRPPRLPRPRPRPGGVPRP | 0.326
RRIRMRPPRLPRPRPRPKGPPRP | 0.716
RRIRCRPPRLPRPRPRPNFQPRP | -0.438
RRIRIRPPRLPRPRPRPGNTPRP | -0.546
RRIRPRPPRLPRPRPRPESNPRP | 0.0165
RRIRLRPPRLPRPRPRPKKEPRP | -0.0307
RRIRHRPPRLPRPRPRPRMLPRP | -0.192
RRIRFRPPRLPRPRPRPFFNPRP | -0.313
RRIRARPPRLPRPRPRPGNGPRP | 0.275
RRIRARPPRLPRPRPRPFDSPRP | -0.0745
RRIRFRPPRLPRPRPRPNLCPRP | 0.00999
RRIRDRPPRLPRPRPRPLAMPRP | 0.767
